# Assay results reported in US10398760B2, “Method of treating pain using agents that promote neuronal differentiation” (priority 2016, dated 2019).
# “Also recorded” adds a separate entry of the source.
# B1: BDNF: brain-derived neurotrophic factor, TrkB ligand and promoter of neuronal differentiation, injected intrathecally (protein)
# chain: HSDPARRGELSVCDSISEWVTAADKKTAVDMSGGTVTVLEKVPVSKGQLKQYFYETKCNPMGYTKEGCRGIDKRHWNSQCRTTQSYVRALTMDSKKRIGWRFIRIDTSCVCTLTIKRGR
# B2: NT4: neurotrophin 4, a TrkB ligand and inducer of neuronal differentiation (protein)
# chain: GVSETAPASRRGELAVCDAVSGWVTDRRTAVDLRGREVEVLGEVPAAGGSPLRQYFFETRCKADNAEEGGPGAGGGGCRGVDRRHWVSECKAKQSYVRALTADAQGRVGWRWIRIDTACVCTLLSRTGRA
# Key:
# [1] = system: human with chronic pain as a result of injury; experiment: Use of Dihexa to treat chronic pain in a human (numeric rating scale, dolorimetric); type: in vivo; details: oral; for pain reported by the subject: 200 miligrams/day
# Method: Dihexa (N-hexanoic-Tyr-Ile-(6)aminohexanoic amide), an activator of c-Met receptor, is administered orally, 200 miligrams/day for 4 weeks, to a human for the purpose of treating pain. The subject is having chronic pain for the previous 6 months, as a result of injury. Before the beginning of treatment, and weekly thereafter for 6 months, the subject is tested for pain levels using a combination of subjective (numeric rating scale) and physiological (dolorimetric) evaluation methods.
# [2] = system: rats subjected to chronic constriction injury of the sciatic nerve (CCI) or Sham surgery; experiment: Mechanical nociceptive sensitivity (von Frey filaments) in CCI and Sham rats; type: in vivo, rat
# [3] = system: rats subjected to chronic constriction injury of the sciatic nerve (CCI) or Sham surgery; experiment: Thermal nociceptive sensitivity (Hargreaves method, radiant heat withdrawal latency) in CCI and Sham rats; type: in vivo, rat
# [4] = system: Mash1, DCX and Notch3 expression in spinal cord gray matter; experiment: Immunofluorescence quantification of immature neuron markers in spinal cord gray matter; type: in vivo, rat; details: vs CCI+Veh
# [5] = system: human patient diagnosed with fibromyalgia; experiment: Use of NT4 to treat pain in a human patient diagnosed with fibromyalgia; type: in vivo; details: for pain reported by the patient: injected into the spinal canal every other day for 3 weeks
# Method: NT4 is a TrkB ligand and inducer of neuronal differentiation that may be used to treat pain. NT4 (200 microliters, 1 microgram/ml) is injected every other day for 3 weeks (10 injections total) into the spinal canal of a human patient diagnosed with fibromyalgia. […] To prevent pain reoccurrence, a maintenance dose of 7,8-dihydroxy-4′-dimethylaminoflavone-8-O-glucozide (3-4 grams per day for 4-5 consecutive days) may be administered every month.
# [6] = intraperitoneal DHF treatment delayed for 3 weeks after CCI
# [7] = intrathecal BDNF treatment delayed for 3 weeks after CCI
# [8] = intrathecal injection every other day for first 3 weeks after CCI/Sham surgery, tested weekly, vs vehicle
molecule,measurement,setting,value
N-hexanoic-Tyr-Ile-(6)aminohexanoic amide [Dihexa],time until increased pain sensitivity may reoccur,[1]; 200 miligrams/day for 4 weeks,3 months
same,pain reported by the subject,[1]; after 2 weeks of treatment,decreased pain
same,pain reported by the subject,[1]; after 4 weeks of treatment,pain sensitivity is back to normal levels
"O=c1cc(-c2ccccc2)oc2c(O)c(O)ccc12 [DHF, 7,8-dihydroxyflavone, reference compound]",duration of the decrease in pain,[2]; DHF intraperitoneal treatment applied for only 3 weeks,3 months
same,long-term mechanical pain sensitivity,[2]; [6],extended long-term decrease in mechanical and thermal pain susceptibility; also recorded: long-term decrease in pain sensitivity
same,mechanical pain sensitivity / mechanical pain threshold,"[2]; intraperitoneal injection every other day for 3 weeks immediately after CCI/Sham surgery, vs vehicle",reduces long-term mechanical pain susceptibility; also recorded: long-term increase in mechanical pain threshold (decrease in pain sensitivity)
same,long-term thermal pain sensitivity,[3]; [6],extended long-term decrease in mechanical and thermal pain susceptibility; also recorded: long-term decrease in pain sensitivity
same,"expression of immature neuron markers Mash1, DCX and Notch3","[4]; intraperitoneal injection every other day for 3 weeks after CCI, spinal cords taken after 4 weeks","reduces the expression of Mash1, DCX and Notch3; also recorded: reducing the expression of all three markers"
B1,duration of the decrease in pain,[2]; BDNF intrathecal treatment applied for only 3 weeks,3 months
same,long-term mechanical pain sensitivity,[2]; [7],long-term reduction in pain and pain susceptibility; also recorded: long-term decrease in pain sensitivity
same,mechanical nociceptive (pain) sensitivity / mechanical pain threshold,[2]; [8],reduction in mechanical pain susceptibility (increased pain threshold); also recorded: long-term increase in mechanical pain threshold (decrease in pain sensitivity)
same,initial short-term increase in thermal pain sensitivity (duration),[3]; [7],2 to 3 days
same,long-term thermal pain sensitivity,[3]; [7],reduced thermal pain susceptibility; also recorded: long-term decrease in pain sensitivity
same,thermal nociceptive (pain) sensitivity,[3]; [8],may increase long-term sensitivity to thermal pain; also recorded: increased long-term thermal pain sensitivity
same,"expression of immature neuron markers Mash1, DCX and Notch3","[4]; intrathecal injection every other day for 3 weeks after CCI, spinal cords taken at week 4","reduction in the expression of Mash1, DCX and Notch3; also recorded: reducing the expression of all three markers"
B2,pain reported by the patient,[5]; after 2 weeks,decreased pain
same,pain reported by the patient,[5]; after 3-4 weeks,no pain
same,pain reported by the patient,[5]; after 4-5 days,increased pain
same,time after which the increase in pain subsides,"[5]; injected into the spinal canal every other day, with continued treatment",7 to 10 days
